{
  "source": "patent US20130209454A1",
  "binders": {"B1": {"name": "NIH45-46^G54W IgG (antibody, name in Kabat numbering, V domains shown)", "VH": "QVRLSQSGGQMKKPGESMRLSCRASGYEFLNCPINWIRLAPGRRPEWMGWLKPRWGAVNYARKFQGRVTMTRDVYSDTAFLELRSLTSDDTAVYFCTRGKYCTARDYYNWDFEHWGRGAPVTVSS", "VL": "EIVLTQSPATLSLSPGETAIISCRTSQSGSLAWYQQRPGQAPRLVIYSGSTRAAGIPDRFSGSRWGADYNLSISNLESGDFGVYYCQQYEFFGQGTKVQVDI"}},
  "experiment_in_all_cases": "cell-based or functional assay",
  "key": {"[1]": {"target": "HIV-1 strain RHPA4259.7 envelope (gp120) (HIV-1)"}, "[2]": {"target": "HIV-1 Env of strain CNE58 (HIV-1)"}, "[3]": {"target": "HIV-1 Env of strain Q259.d2.17 (HIV-1)"}, "[4]": {"target": "HIV-1 strain 6480.v4.c25 envelope (gp120) (HIV-1)"}, "[5]": {"target": "HIV-1 Env of strain THRO4156.18 (HIV-1)"}, "[6]": {"target": "HIV-1 Env of strain 1056_10_TA11_1826 (HIV-1)"}, "[7]": {"target": "HIV-1 Env of strain R2184.c04 (HIV-1)"}, "[8]": {"target": "HIV-1 strain Ce2060_G9 envelope (gp120) (HIV-1)"}, "[9]": {"target": "HIV-1 strain X2131_C1_B5 envelope (gp120) (HIV-1)"}, "[10]": {"target": "HIV-1 Env of strain CAAN5342.A2 (HIV-1)"}, "[11]": {"target": "HIV-1 strain 3016.v5.c45 envelope (gp120) (HIV-1)"}, "[12]": {"target": "HIV-1 Env of strain 3016.v5.c45 (HIV-1)"}, "[13]": {"target": "HIV-1 strain R1166.c01 envelope (gp120) (HIV-1)"}, "[14]": {"target": "HIV-1 strain Q842.d12 envelope (gp120) (HIV-1)"}, "[15]": {"target": "HIV-1 Env of strain AC10.0.29 (HIV-1)"}, "[16]": {"target": "HIV-1 strain ZM233M.PB6 envelope (gp120) (HIV-1)"}, "[17]": {"target": "HIV-1 strain TRJO4551.58 envelope (gp120) (HIV-1)"}, "[18]": {"target": "HIV-1 Env of strain T250-4 (HIV-1)"}, "[19]": {"target": "HIV-1 strain 3718.v3.c11 envelope (gp120) (HIV-1)"}, "[20]": {"target": "HIV-1 Env of strain CNE21 (HIV-1)"}, "[21]": {"target": "HIV-1 strain 231965.c01 envelope (gp120) (HIV-1)"}, "[22]": {"target": "HIV-1 Env of strain 703357.C02 (HIV-1)"}, "[23]": {"target": "HIV-1 strain 0815.v3.c3 envelope (gp120) (HIV-1)"}, "[24]": {"target": "HIV-1 Env of strain Ce2010_F5 (HIV-1)"}, "[25]": {"target": "HIV-1 Env of strain C1080.c03 (HIV-1)"}, "[26]": {"target": "HIV-1 Env of strain CAP45.2.00.G3 (HIV-1)"}, "[27]": {"target": "HIV-1 Env of strain SC422661.8 (HIV-1)"}, "[28]": {"target": "HIV-1 Env of strain ZM53M.PB12 (HIV-1)"}, "[29]": {"target": "HIV-1 strain T251-18 envelope (gp120) (HIV-1)"}, "[30]": {"target": "HIV-1 strain Q461.e2 envelope (gp120) (HIV-1)"}, "[31]": {"target": "HIV-1 strain Q259.d2.17 envelope (gp120) (HIV-1)"}, "[32]": {"target": "HIV-1 Env of strain CNE20 (HIV-1)"}, "[33]": {"target": "HIV-1 Env of strain 6811.v7.c18 (HIV-1)"}, "[34]": {"target": "HIV-1 strain 89-F1_2_25 envelope (gp120) (HIV-1)"}, "[35]": {"target": "HIV-1 strain Ce0393_C3 envelope (gp120) (HIV-1)"}, "[36]": {"target": "HIV-1 strain T278-50 envelope (gp120) (HIV-1)"}, "[37]": {"target": "HIV-1 Env of strain CNE17 (HIV-1)"}, "[38]": {"target": "HIV-1 strain 928-28 envelope (gp120) (HIV-1)"}, "[39]": {"target": "HIV-1 strain Du172.17 envelope (gp120) (HIV-1)"}, "[40]": {"target": "HIV-1 Env of strain X1193_c1 (HIV-1)"}, "[41]": {"target": "HIV-1 Env of strain Ce0682_E4 (HIV-1)"}, "[42]": {"target": "HIV-1 strain ZM214M.PL15 envelope (gp120) (HIV-1)"}, "[43]": {"target": "HIV-1 strain 703357.C02 envelope (gp120) (HIV-1)"}, "[44]": {"target": "HIV-1 Env of strain Q23.17 (HIV-1)"}, "[45]": {"target": "HIV-1 Env of strain 89-F1_2_25 (HIV-1)"}, "[46]": {"target": "HIV-1 strain Q23.17 envelope (gp120) (HIV-1)"}, "[47]": {"target": "HIV-1 Env of strain 231965.c01 (HIV-1)"}, "[48]": {"target": "HIV-1 strain CAP45.2.00.G3 envelope (gp120) (HIV-1)"}, "[49]": {"target": "HIV-1 strain QH0692.42 envelope (gp120) (HIV-1)"}, "[50]": {"target": "HIV-1 strain T255-34 envelope (gp120) (HIV-1)"}},
  "data": [
    {"binder": "B1", "values": [
      {"measurement": "neutralization IC80", "setting": "[1]", "value": 0.007, "unit": "µg/mL"},
      {"measurement": "neutralization IC50", "setting": "[2]", "value": 0.02, "unit": "µg/mL"},
      {"measurement": "neutralization IC50", "setting": "[3]", "value": "< 0.001", "unit": "µg/mL"},
      {"measurement": "neutralization IC80", "setting": "[4]", "value": 0.021, "unit": "µg/mL"},
      {"measurement": "neutralization IC50", "setting": "[5]", "value": 0.54, "unit": "µg/mL"},
      {"measurement": "neutralization IC50", "setting": "[6]", "value": 0.024, "unit": "µg/mL"},
      {"measurement": "neutralization IC50", "setting": "[7]", "value": 0.005, "unit": "µg/mL"},
      {"measurement": "neutralization IC80", "setting": "[8]", "value": 0.042, "unit": "µg/mL"},
      {"measurement": "neutralization IC80", "setting": "[9]", "value": 0.24, "unit": "µg/mL"},
      {"measurement": "neutralization IC50", "setting": "[10]", "value": 0.07, "unit": "µg/mL"},
      {"measurement": "neutralization IC80", "setting": "[11]", "value": 15.4, "unit": "µg/mL"},
      {"measurement": "neutralization IC50", "setting": "[12]", "value": 1.47, "unit": "µg/mL"},
      {"measurement": "neutralization IC80", "setting": "[13]", "value": 0.51, "unit": "µg/mL"},
      {"measurement": "neutralization IC80", "setting": "[14]", "value": 0.025, "unit": "µg/mL"},
      {"measurement": "neutralization IC50", "setting": "[15]", "value": 0.13, "unit": "µg/mL"},
      {"measurement": "neutralization IC80", "setting": "[16]", "value": 0.11, "unit": "µg/mL"},
      {"measurement": "neutralization IC80", "setting": "[17]", "value": 0.05, "unit": "µg/mL"},
      {"measurement": "neutralization IC50", "setting": "[18]", "value": 1.33, "unit": "µg/mL"},
      {"measurement": "neutralization IC80", "setting": "[19]", "value": 0.04, "unit": "µg/mL"},
      {"measurement": "neutralization IC50", "setting": "[20]", "value": 0.03, "unit": "µg/mL"},
      {"measurement": "neutralization IC80", "setting": "[21]", "value": 0.035, "unit": "µg/mL"},
      {"measurement": "neutralization IC50", "setting": "[22]", "value": 3.43, "unit": "µg/mL"},
      {"measurement": "neutralization IC80", "setting": "[23]", "value": 0.003, "unit": "µg/mL"},
      {"measurement": "neutralization IC50", "setting": "[24]", "value": 0.038, "unit": "µg/mL"},
      {"measurement": "neutralization IC50", "setting": "[25]", "value": 0.2, "unit": "µg/mL"},
      {"measurement": "neutralization IC50", "setting": "[26]", "value": 32.2, "unit": "µg/mL"},
      {"measurement": "neutralization IC50", "setting": "[27]", "value": 0.02, "unit": "µg/mL"},
      {"measurement": "neutralization IC50", "setting": "[28]", "value": 0.04, "unit": "µg/mL"},
      {"measurement": "neutralization IC80", "setting": "[29]", "value": 0.92, "unit": "µg/mL"},
      {"measurement": "neutralization IC80", "setting": "[30]", "value": 0.091, "unit": "µg/mL"},
      {"measurement": "neutralization IC80", "setting": "[31]", "value": 0.014, "unit": "µg/mL"},
      {"measurement": "neutralization IC50", "setting": "[32]", "value": 0.04, "unit": "µg/mL"},
      {"measurement": "neutralization IC50", "setting": "[33]", "value": "< 0.001", "unit": "µg/mL"},
      {"measurement": "neutralization IC80", "setting": "[34]", "value": "> 50", "unit": "µg/mL"},
      {"measurement": "neutralization IC80", "setting": "[35]", "value": 0.089, "unit": "µg/mL"},
      {"measurement": "neutralization IC80", "setting": "[36]", "value": "> 50", "unit": "µg/mL"},
      {"measurement": "neutralization IC50", "setting": "[37]", "value": 0.036, "unit": "µg/mL"},
      {"measurement": "neutralization IC80", "setting": "[38]", "value": 0.25, "unit": "µg/mL"},
      {"measurement": "neutralization IC80", "setting": "[39]", "value": 42.9, "unit": "µg/mL"},
      {"measurement": "neutralization IC50", "setting": "[40]", "value": "< 0.001", "unit": "µg/mL"},
      {"measurement": "neutralization IC50", "setting": "[41]", "value": 0.01, "unit": "µg/mL"},
      {"measurement": "neutralization IC80", "setting": "[42]", "value": 0.15, "unit": "µg/mL"},
      {"measurement": "neutralization IC80", "setting": "[43]", "value": 17.6, "unit": "µg/mL"},
      {"measurement": "neutralization IC50", "setting": "[44]", "value": 0.01, "unit": "µg/mL"},
      {"measurement": "neutralization IC50", "setting": "[45]", "value": "> 50", "unit": "µg/mL"},
      {"measurement": "neutralization IC80", "setting": "[46]", "value": 0.03, "unit": "µg/mL"},
      {"measurement": "neutralization IC50", "setting": "[47]", "value": "< 0.001", "unit": "µg/mL"},
      {"measurement": "neutralization IC80", "setting": "[48]", "value": "> 50", "unit": "µg/mL"},
      {"measurement": "neutralization IC80", "setting": "[49]", "value": 1.12, "unit": "µg/mL"},
      {"measurement": "neutralization IC80", "setting": "[50]", "value": 0.099, "unit": "µg/mL"}
    ]}
  ]
}
